Publication PMC5993284, “Peptide inhibitors of the anaphase promoting-complex that cause sensitivity to microtubule poison” (PLoS ONE, 2018)
Entries after “also recorded” stand apart in the source; their conditions may differ. Ends that are not written are not given here. * marks the point of attachment. Biotin = O=C1N[C@H]2[C@H](CS[C@H]2CCCCC(=O)*)N1

How the values were obtained:
[1] = target: T1, APC/C^Cdc20 (Saccharomyces cerevisiae, UniProt P16522+P53886); assay: biochemical; assay type: biochemical; conditions: for inhibition of APC/C^Cdc20 activity (in words): 220 μM peptide, time course 0-60 minutes, vs buffer only, n = 3
T1 construct: constructed within full-length Cdc20 by site-directed mutagenesis for analysis in vitro in the APC/C^Cdc20 assay; The APC/C was purified for enzyme assays from 1 mL of TAP-tagged Cdc16 yeast extract (SCSY51); made in house; host or cells: Cdc20: in vitro transcription/translation in rabbit reticulocyte lysate, used unpurified; APC/C: S. cerevisiae strain SCSY51 (Cdc16-TAP) extract, captured on IgG magnetic beads
How it was run: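 Bead-bound TAP-Cdc16 yeast APC/C was mixed with IVT-made Cdc20 or Cdh1, pre-incubated 1 h at rt with checkpoint proteins or inhibitor peptides, plus pre-charged E1/E2/ATP/ubiquitin and ^35S-Pds1 in 20 mM HEPES pH 8.0, 100 mM NaCl, 1 mM MgCl2. Time points were stopped in SDS buffer and resolved by SDS-PAGE.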

[2] = system: budding yeast Saccharomyces cerevisiae cells; assay: Benomyl sensitivity upon over expression in vivo (colony numbers per plate); assay type: cell-based; conditions: for benomyl sensitivity on over expression (in words): pGAL1-10 over expression with N-terminal NLS, 12.5 μg/mL benomyl, average colony numbers per plate, 5 replicates; for effect of over expression on colony number without benomyl (in words): pGAL1-10 over expression, galactose, no benomyl
Protocol: For the production of high quality DNA for in vitro transcription/translation E. coli were grown in 50 mL LB containing 100 μg/mL ampicillin for 12–16 hours at 37 °C. Purified plasmid DNA, which was dissolved with 50 μL ddH2O or DEPC (diethyl pyrocarbonate)-treated water, was measured at OD260/280 and stored at -20 °C (Bioman, Inc., Taiwan). All mutant allele expression plasmids were constructed employing site-directed mutagenesis following the manufacturer’s protocol (Stratagene, USA). Yeast were cultured under standard conditions. For large-scale yeast cultures to purify APC/C, yeast were cultured overnight in 10 mL YPD medium (20 g Dextrose, 20 g peptone, and 10 g yeast extract per liter) at 30 °C. 1.5 L of YPD medium in two Fernbach flasks was inoculated with 1 mL overnight culture and supplemented with 100 μg/mL ampicillin and 100 μg/mL streptomycin to prevent bacterial growth. Cell cycle arrest, collection of yeast cells and yeast cell extractions were all performed as previously described.
There is a long-term interest in identifying APC/C inhibitors that give rise to sensitivity to microtubule poisons in vivo. To determine if a Cdc20 Mad2-binding motif peptide was sufficient to induce a microtubule poison sensitivity phenotype in vivo, the DQ36 and PQ65 peptides were over expressed under the control of a galactose inducible pGAL1-10 promoter that had been integrated as single copy into the yeast genome together with the peptide open reading frames (ORF). The expressed proteins were engineered to contain an N-terminal nuclear localization signal ([…]) along with a short amino acid ‘linker’ in order to target the nuclear pool of the APC/C because yeast undergo a closed mitosis without nuclear envelope breakdown. […] This phenotype was suppressed by mutating the yeast KILR-motif residues RILQY to AAAAA (Fig 7B) providing a direct correlation between our observed in vitro APC/C inhibition that requires the yeast KILR-motif RILQY residues and an in vivo microtubule poison sensitivity phenotype.

Row | Molecule | inhibition of APC/C^Cdc20 activity (in words) ([1]; 35S-Pds1 substrate) | benomyl sensitivity on over expression (in words) [2] | effect of over expression on colony number without benomyl (in words) [2] | overall APC/C inhibition (in words) ([1]; discussion/conclusion statement) | IC50 ([1]; peptide titration dilution series, 35S-Pds1 substrate, estimated/approximate, read-out: IC50) [µM]
1 | DQ36-mut1: DQ36-mut1 where all 5 RILQY residues were changed to alanine AAAAA (Biotin-DMNKAAAAAMPEPPKCSSLRQKSYIMKKRTHYSYQQ) | The RILQY residues of the yeast KILR-motif were observed to be essential for full inhibition | The benomyl sensitivity phenotype was not observed | no significant difference in colony numbers per plate in the absence of benomyl | – | –
2 | PQ65: 65 amino acid residue peptide called PQ65 (Cdc20 169–232) (peptide, UniProt P26309 169-232, looked up, fragment) PPNASPISHLRAQTKIVFKQNVAEACGLDMNKRILQYMPEPPKCSSLRQKSYIMKKRTHYSYQQ | sufficient to inhibit APC/C^Cdc20 activity; also recorded: A significant level of APC/C^Cdc20 inhibition was observed | induced a significant sensitivity to benomyl; also recorded: leads to sensitivity to the microtubule poison benomyl | no change in colony number or colony morphology was observed; also recorded: no significant difference in colony numbers per plate in the absence of benomyl | displayed the highest level of APC/C inhibition in vitro | < 50
